Laboratory results published in article PMC3601782.

Target: Sox2 (UniProt P48431)
Experiment: co-IP Flag-Oct4 variants, endogenous Sox2
Details: reference: Flag-Oct4 wild type; sites T235

binding against the reference: weaker
Substance: Oct4 (from UniProt Q01860) Flag-Oct4-T235A
